The results in this text go back to the supplement of paper PMC9170038.

For the data set, the system named is MS2 coat protein. The data set can be described thus: apparent KD of MS2 coat protein; designed switch direction (-1 OFF switch, 1 ON switch): -1; higher = weaker reporter binding. Put shortly:
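On Illumina chips, designed RNA switches with common flanks were made by stalled E. coli RNA polymerase. Titrations with SNAP-549-labelled MS2 coat protein, doubling from 0.7 or 1.5 nM to 3 µM, were done with no input, with 200 uM small-molecule ligand, or with an oligonucleotide input. Apparent KD is the median per design over clusters, from curve fits of normalised cluster fluorescence.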

The mark [1] stands for this setting: Eterna round: R95, input ligand: FMN 200 uM.
The mark [2] stands for this setting: Eterna round: R95, input ligand: microRNA oligo, concentration not stated.
Setting [3] is: Eterna round: R95, input ligand: none.
The mark [4] stands for this setting: input ligand: microRNA oligo, concentration not stated.

“GCACGCAAAGGAUAUCGGAAAGAAAACAUGAGGAUCACCCAUGUAUAUAUCAAAUGGGUGCGAGAAGGUUGAGUGA [Xeleonge] (puzzle: Exclusion 5)”: the “apparent KD of MS2 coat protein” value is, setting by setting: under setting [1], 192 nM; under setting [2], 60 nM; under setting [3], 94 nM.

Take “GGUUGGCGAGGAUAUACAUGAGGAUCACCCAUGUGCGAGAAAAAAGUGAGGAAGAAAAGUAGAAGGCGCUGACG [salish99_ex3_r3_018] (puzzle: Exclusion 3)”: the “apparent KD of MS2 coat protein” value under setting [1] was found to be 238 nM, the “apparent KD of MS2 coat protein” value under setting [2] worked out at 49.5 nM and the “apparent KD of MS2 coat protein” value under setting [3] worked out at 58.2 nM.

As to “ACAUGAGGAUCACCCAUGUGAAAACAAUGGCUGACUUAGAGAUAGGAUAUAUGUGCAUAUCAAACAUAGAAGGGUCAUUACUGG [Deportation 89 - Jieux - Exclusion NG 3] (Eterna round: R96, puzzle: Exclusion NG 3)”, the “apparent KD of MS2 coat protein” value by setting is: (input ligand: FMN 200 uM) 37.9 nM; under setting [4], 34.5 nM; (input ligand: none) 39.3 nM.

Take “CCCGAGUUAGGAUAUAAACCAAAGUAACCAGCAGCUUAGCUUUAGAAGGAACAUGAGGAUCACCCAUGUGGUCU [Eternabot (L2) Solution 70] (Eterna round: R97, puzzle: Exclusion 4)”: the “apparent KD of MS2 coat protein” value is, setting by setting: (input ligand: FMN 200 uM) 119 nM; (input ligand: none) 107 nM.

On to “UCAUGGAAGCAGGAUAUGCUUGUUUAAUUGUUUGCAGAAGGGCUAACAUGAGGAUCACCCAUGUAAGAGGUCUA [JR_E6_Sub063] (Eterna round: R96, puzzle: Exclusion 6)”, for which the “apparent KD of MS2 coat protein” value reads like this: (input ligand: FMN 200 uM) 59.6 nM; under setting [4], 53.3 nM; (input ligand: none) 72.5 nM.

Consider “CCCAGUUAGAGAGGAUAUCGUACAUGAGGAUCACCCAUGUAAUAAAUGAGGAUUUCGGGUGUCUACGAGAAGGCUCGGAUAGGC [Ostracism 30 - Jieux - Exclusion NG 2] (Eterna round: R96, puzzle: Exclusion NG 2)”, for which the “apparent KD of MS2 coat protein” value was 75.8 nM (input ligand: FMN 200 uM), 27.1 nM under setting [4] and 35.9 nM (input ligand: none).

For the sequence “AAACCUCACAACCGUUAAAACAUGAGGAUCACCCAUGUGCCGUAACGGCGCAUGGUCGAGCUAGGCUCGUCCAUGCA [Zamacelaso] (Eterna round: R96, puzzle: Sensor v2, turn-off variant)”, the “apparent KD of MS2 coat protein” value is, setting by setting: (input ligand: FMN 200 uM) 12 nM; under setting [4], 10.2 nM; (input ligand: none) 15.4 nM.

For “AGACACUGAGGAUAUACAUGAGGAUCACCCAUGUAUGGGAAAUACGAAUGUAUUAGUUGUAGAAGGUGGUGUCG [Eternabot (L1) Solution 10] (Eterna round: R97, puzzle: Exclusion 3)”, the “apparent KD of MS2 coat protein” value came to 183 nM (input ligand: FMN 200 uM) and 199 nM (input ligand: none).

For the sequence “AAUACCGGUCUGCCUAAAGACAUGAGGAUCACCCAUGUCUGAUUCUCAACAGGCCUUUUGCUUCUCUUAACUACACA [Vetilage] (puzzle: Sensor v3, turn-off variant 1)”, the “apparent KD of MS2 coat protein” value reads like this: under setting [1], 13.9 nM; under setting [2], 23.1 nM; under setting [3], 12.6 nM.

With “UGUUGUUACGCAGGAUAUGCAUGAGGAUCACCCAUGCAACCACAUUUAACAUGAGGAUCACCCAUGUAGAAGGGCGGGUUAACA [pwkr exNG2 2xF5 1xFMN.1] (Eterna round: R96, puzzle: Exclusion NG 2)”, the “apparent KD of MS2 coat protein” value by setting is: (input ligand: FMN 200 uM) 77.5 nM; under setting [4], 20.4 nM; (input ligand: none) 28 nM.

For “AUAAUUUAAGUGAGGAUAUACCUAUGGAAACAUAGGUAGAAGGCACAUGAGGAUCACCCAUGUUUUUACACAAA [Fiskers BMX 4 - 2] (puzzle: Brourd's mod of Exclusion 4)”, the “apparent KD of MS2 coat protein” value under setting [2] was 18.1 nM.

Consider “AGCAUGCAGUAGGAUAUCGAUCCACAAUAUGAACGAGAAGGGCUGACAUGAGGAUCACCCAUGUGCGUCCGAAG [Ersoontiri] (Eterna round: R97, puzzle: Exclusion 6)”, for which the “apparent KD of MS2 coat protein” value (input ligand: FMN 200 uM) was 21 nM and the “apparent KD of MS2 coat protein” value (input ligand: none) amounted to 16.8 nM.

Consider “GACCAGGUAGGAUAUGCAGGGUAGGACUUGAGGAUCACCCAAGUGGCCAAAGUGCGUCCCGCAGAAGGGCCGAACC [Teararatbi] (Eterna round: R97, puzzle: Exclusion 5)”, for which the “apparent KD of MS2 coat protein” value (input ligand: FMN 200 uM) came to 356 nM and the “apparent KD of MS2 coat protein” value (input ligand: none) came to 386 nM.

As to “UUGUACAUAGGAUAUAGUUGUUUGUACAUGAGGAUCACCCAUGUUAUGUAUGUUUUGUUUCUAGAAGGAUGUUGAU [JR_E5_Sub003] (puzzle: Exclusion 5)”, the “apparent KD of MS2 coat protein” value under setting [2] is 47.1 nM.

In the case of “GUAGAGUAAGGAUAUGCUGAAUAGGAUAGAAUGGUUAGAAAGCAGAAGGUACAUGAGGAUCACCCAUGUAAUGU [Excluse me!!!! 18 - Jieux - Exclusion 4] (puzzle: Exclusion 4)”, the “apparent KD of MS2 coat protein” value under setting [2] came to 20 nM.

On to “AUACCCAGAGGAUAUGCCGCUGGGUGCCCUCUGCAUAAAACACUUGAGGAUCACCCAAGUAGAAGGCUGGGCUC [Leiseses] (Eterna round: R97, puzzle: Exclusion 2)”, for which the “apparent KD of MS2 coat protein” value amounted to 173 nM (input ligand: FMN 200 uM) and 78.1 nM (input ligand: none).

In the case of “UGGGUUCUCCAUGGAAGUAACAUGAGGAUCACCCAUGUAGGGCAAGUUUUUUGCUCGUCAUAGGCCGUGGGUUUGGA [JR_SV3TOV1_Sub019] (puzzle: Sensor v3, turn-off variant 1)”, the “apparent KD of MS2 coat protein” value was 252 nM under setting [1], 248 nM under setting [2] and 305 nM under setting [3].

As to “CUGAUGUCAGGAUAUCAGAAAAGGCACAAGAACGCGCCAAAUGAGAAGGGACAUGAGGAUCACCCAUGUAAAAC [Reena] (puzzle: Exclusion 4)”, the “apparent KD of MS2 coat protein” value under setting [1] is 87.1 nM, the “apparent KD of MS2 coat protein” value under setting [2] stood at 28.2 nM and the “apparent KD of MS2 coat protein” value under setting [3] is 27.9 nM.

For the sequence “UCGCUCCGUGUAGGAUAUCGCCGUUCUAUUCGGCGAGAAGGACAUGAGGAUCACCCAUGUAUGUUAUUAUCACGUGUGGCGCGC [Design 55] (Eterna round: R96, puzzle: Exclusion NG 1)”, the “apparent KD of MS2 coat protein” value runs as follows: (input ligand: FMN 200 uM) 36 nM; under setting [4], 14 nM; (input ligand: none) 20.6 nM.

For the sequence “AGCUAGUCAGGAUAUACGUAAAUGUCGAAAGACGUAUUGGGACAUGAGGAUCACCCAUGUAGAAGGGACUAGCA [Mod of Janderson's WEB Mod v.1] (Eterna round: R96, puzzle: Exclusion 2)”, the “apparent KD of MS2 coat protein” value reads like this: (input ligand: FMN 200 uM) 168 nM; under setting [4], 19.7 nM; (input ligand: none) 24.8 nM.

For “GGUACUAACACGAGAGUGUUAGUACUAUAAGCUUGUGUUACAUGAGGAUCACCCAUGUCCUCAUAGGCUCGUCUUAU [Mat - Sensor v3 - Turn-off var 2 - D80] (puzzle: Sensor v3, turn-off variant 2)”, the “apparent KD of MS2 coat protein” value is 209 nM under setting [1], 25.8 nM under setting [2] and 231 nM under setting [3].

Consider “CGAAAGUUAGGAUAUGCCCGGAACGACAUGAGGAUCACCCAUGUUAGCAAGGGACCUGGCGCAGAAGGAACGGAUA [EX5 C.20] (Eterna round: R97, puzzle: Exclusion 5)”, for which the “apparent KD of MS2 coat protein” value was found to be 20.2 nM (input ligand: FMN 200 uM) and 19.3 nM (input ligand: none).

On to “UAUGAUGCAGGAUAUACAUGAGGAUCACCCAUGUCUCCAAGGGAUAAAGCCAGGCGCUGUAGAAGGGCGACGAC [Eternabot (L1) Solution 28] (Eterna round: R97, puzzle: Exclusion 3)”, for which the “apparent KD of MS2 coat protein” value was 26.9 nM (input ligand: FMN 200 uM) and 27.4 nM (input ligand: none).

In the case of “AAAUAGCUAGAGGAUAUUGGAUAGGAUUUAAUACGAGAAGGUUAGACAUGAGGAUCACCCAUGUUGUGUUGGGA [EX6 #17] (Eterna round: R97, puzzle: Exclusion 6)”, the “apparent KD of MS2 coat protein” value is, setting by setting: (input ligand: FMN 200 uM) 51.3 nM; (input ligand: none) 48.5 nM.

As for “UUUAAUUUUUUUUUUUUACAAGCUUUUUGCUCGUCUUAUACAUGAGGAUCACCCAUGUGGAUGGGAAAUGAAUUAUC [JMF 97] (puzzle: Sensor v3, turn-off variant 2)”, the “apparent KD of MS2 coat protein” value worked out at 18.6 nM under setting [1], 115 nM under setting [2] and 19.7 nM under setting [3].

“UCGCUCCGUGUAGGAUAUCGUUGUAUGAUGCGGCGAGAAGGACAUGAGGAUCACCCAUGUAUGUUAUUAUCACGCGUGGCGCAA [Design 65] (Eterna round: R96, puzzle: Exclusion NG 1)”: the “apparent KD of MS2 coat protein” value came to 18.5 nM (input ligand: FMN 200 uM), 15.3 nM under setting [4] and 20.6 nM (input ligand: none).

Take “UAGGAACGAGGAUAUACACCUGCAAGUGGUGUGGGUACACCACAUGAGGAUCACCCAUGUAGAAGGCGUACCAA [Lelebi] (Eterna round: R97, puzzle: Exclusion 2)”: the “apparent KD of MS2 coat protein” value is 57.3 nM (input ligand: FMN 200 uM) and 12.3 nM (input ligand: none).

“CCGGCUUAGGAGGAUAUCAGAGUCGAAAGACUCUGAGAAGGCCUAACAUGAGGAUCACCCAUGUGUCCUACCGG [Mod of Eli 7 - Jieux - Exclusion 6] (Eterna round: R97, puzzle: Exclusion 6)”: the “apparent KD of MS2 coat protein” value is 81.5 nM (input ligand: FMN 200 uM) and 25.1 nM (input ligand: none).

With “UAGGAGUCAGGAUAUGCGAGAGAUUGAAGUAAGGGAUGAGAGCAGAAGGGACAUGAGGAUCACCCAUGUAAGGA [JR_Exclu4_Sub092] (puzzle: Exclusion 4)”, the “apparent KD of MS2 coat protein” value under setting [1] was found to be 47.7 nM, the “apparent KD of MS2 coat protein” value under setting [2] amounted to 43.1 nM and the “apparent KD of MS2 coat protein” value under setting [3] turned out to be 52 nM.

With “GGGCGGGCAGGAUAUACAUGAGGAUCACCCAUGUAUGUCCAAAGACAUACAUUCUUAUGUAGAAGGGCCCGCCC [Ex 4] (Eterna round: R97, puzzle: Exclusion 3)”, the “apparent KD of MS2 coat protein” value was 142 nM (input ligand: FMN 200 uM) and 26.6 nM (input ligand: none).
